Reference: patent publication US20220064284A1 (Janssen / Centocor, published 2022)

How the values were obtained:
GP5B305 = molecular target: T1, GP5B305; assay: SPR (ProteOn XPR36), mAb captured on anti-mouse Fc, antigen 50 nM to 0.2 nM in solution
T1 construct: Used as the analyte in the ProteOn assay ('Antigens (scFV Fc Fusions)'); not shown: Hinge/Fc of HC2; all of HC1 (CD3B376 Fab heavy chain with C-terminal BCMB516-LH-scFv); CD3B376 light chain
Protocol: ProteOn XPR36 system (BioRad) was used to perform binding assays. ProteOn GLC chips (BioRad, Cat #176-5011) were coated with Anti-Mouse Fc antibody. Library Antibodies (Mouse IgG2a) diluted to 0.25 ug/ml to 1 ug/ml to reach approximately 100-200RL. Antigens (scFV Fc Fusions) are associated at 50 nM to 0.2 nM, 1:4 dilutions for 3 minutes. Dissociation for 30 mins. The results of the assay (Table 1 below) show picomolar affinity of GP5B318 with GP5B305. GP5B305 is a bi-specific antibody that includes HCl N-Terminal CD3B376-Fab/C-Terminal BCMB516-LH-scFv* and HC2 N-Terminal GP5B83 N23T, N30S-LH-scFv*.

[1] = molecular target: T2, GPRC5D CAR GP5DB83-HL expressed on SupT1 cells; assay: flow cytometry on GPRC5D CAR (GP5DB83-HL) SupT1 cells, unconjugated GP5B318 detected with PE-goat anti-mouse IgG, PE MFI
T2 construct: Chimeric antigen receptor with the GP5B83 scFv in VH-VL order; also called GP5DB83-HL CAR; CAR 1 (GP5B83-HL)
T2 sequence (chain, as listed by the source limits assumed): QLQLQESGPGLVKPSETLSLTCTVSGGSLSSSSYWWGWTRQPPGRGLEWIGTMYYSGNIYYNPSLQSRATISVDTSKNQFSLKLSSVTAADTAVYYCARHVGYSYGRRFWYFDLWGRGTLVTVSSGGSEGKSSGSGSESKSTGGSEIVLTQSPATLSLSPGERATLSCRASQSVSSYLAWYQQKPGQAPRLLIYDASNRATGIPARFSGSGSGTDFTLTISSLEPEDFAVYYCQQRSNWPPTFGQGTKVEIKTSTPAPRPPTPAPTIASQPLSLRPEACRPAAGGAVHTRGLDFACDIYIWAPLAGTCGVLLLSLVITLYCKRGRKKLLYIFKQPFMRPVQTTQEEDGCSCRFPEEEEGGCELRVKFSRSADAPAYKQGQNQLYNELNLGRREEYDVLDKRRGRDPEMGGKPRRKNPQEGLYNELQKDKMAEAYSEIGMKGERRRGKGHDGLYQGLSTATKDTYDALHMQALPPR
Protocol: SupT1 cells expressing GP5DB83-HL were compared to parental CAR-SupT1 cells. SupT1 cells expressing GP5DB83-HL and parental CAR-SupT1 cells were stained with near IR LIVE/DEAD fluorescent reactive dye on ice for 20 mins. After incubation, the cells were washed and resuspended in BSA stain buffer Cells (100,000 cells/well) were plated in a 96 well plate and incubated with increasing concentrations of GP5B318 for 30 minutes on ice with and without 10 μg/mL CAR-Fc Fusion protein, GP5B83_N24T_N315-HL-hu Fc-scFv (GP5B30.002). Following incubation, the samples were washed with BSA stain buffer and stained with PE-goat anti-mouse IgG polyclonal to detect bound antibody on live SupT1 cells. After incubation, washing, and fixation, the samples were acquired on a 10 color FACSCanto II flow cytometer. Analysis was done using FlowJo and the PE median fluorescent intensity of live SupT1 cells is plotted in FIG. 3. […] No binding was detected on CAR-SupT1 parental cells.

[2] = molecular target: T2, GPRC5D CAR GP5DB83-HL expressed on …; assay: flow cytometry on GPRC5D CAR (GP5DB83-HL) SupT1 cells, directly PE-conjugated GP5B318, PE MFI
Protocol: GP5B318 was conjugated to R-PE as described above and tested for binding to GP5DB83-HL SupT1 in the presence or absence of 10 μg/mL GP5DB83-scFv Fc fusion protein to assess the specificity of GP5B318 binding to GP5DB83-HL CAR and ensure CAR detection was not affected by PE labeling. GP5DB83-HL SupT1 cells were stained with near IR LIVE/DEAD fluorescent reactive dye in 50 mL tube on ice for 20 mins. After incubation, the cells were washed and resuspended in BSA stain buffer to 2×10⁶ cells/mL. 100,000 cells/well were seeded in 96 well plate and incubated with increasing concentrations of PE-GP5B318 and 10 μg/mL GP5DB83-scFv Fc for 45 minutes on ice. After incubation, washing, and fixation, the samples were acquired on a 10 color FACSCanto II flow cytometer. Analysis was performed using FlowJo analysis software and the PE median fluorescent intensity of live SupT1 cells is plotted in FIG. 4.

T1 sequence (scFv, as listed by the source limits assumed): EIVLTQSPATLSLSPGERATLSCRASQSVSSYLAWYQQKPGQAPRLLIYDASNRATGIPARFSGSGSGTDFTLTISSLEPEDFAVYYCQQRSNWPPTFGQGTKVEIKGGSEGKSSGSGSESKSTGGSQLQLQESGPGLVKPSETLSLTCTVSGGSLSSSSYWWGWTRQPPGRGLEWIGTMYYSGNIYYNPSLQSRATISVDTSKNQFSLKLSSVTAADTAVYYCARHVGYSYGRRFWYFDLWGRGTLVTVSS

B1: GP5B318 (antibody, mouse IgG2a, kappa, V domains shown)
VH: EVQLVQSGAEVKKPGESLKISCKGSGYSFTSYWIGWVRQMPGKGLEWMGIIYPGDSDTRYSPSFQGQVTISADKSISTAYLQWSSLKASDTAMYYCARGWDYGTGEFDYWGQGTLVTVSS
VL: EIVLTQSPGTLSLSPGERATLSCRASQSIGNWLNWYQQKPGKAPKLLIYYASSLQSGVPSRFSGSGSGTDFTLTISSLQPEDFAVYYCQQSLSFPITFGQGTKVEIKR
notes: made in HEK293 Expi or CHO; also called anti-idiotypic antibody GP5B318; chimeric mAb with human VH/VL and murine IgG2a/k
With B1 the Kd (GP5B305) was < 2.9 pM, the koff (GP5B305) was < 2.9e-05 s⁻¹ and the kon (GP5B305) was > 1e+07 M⁻¹ s⁻¹. The EC50 [1] was 0.03 µg/mL.

B2: PE-GP5B318 (antibody, mouse IgG2a, kappa, V domains shown)
VH: EVQLVQSGAEVKKPGESLKISCKGSGYSFTSYWIGWVRQMPGKGLEWMGIIYPGDSDTRYSPSFQGQVTISADKSISTAYLQWSSLKASDTAMYYCARGWDYGTGEFDYWGQGTLVTVSS
VL: EIVLTQSPGTLSLSPGERATLSCRASQSIGNWLNWYQQKPGKAPKLLIYYASSLQSGVPSRFSGSGSGTDFTLTISSLQPEDFAVYYCQQSLSFPITFGQGTKVEIKR
modifications: antibody conjugated to R-phycoerythrin, purified to a 1:1 PE:antibody ratio; site not stated
notes: GP5B318 labelled with phycoerythrin (Expedeon kit); also called PE-P5B318; GP5B318 conjugated to R-PE
Work on B2 yielded an EC50 [2] of 0.1 µg/mL.
